According to US20130217122A1, “Expansion of Interferon-Gamma-Producing T-Cells Using Glypican-3 Peptide Library” (The Trustees of the University of Pennsylvania, priority 2012, published 2013):

Target: T1, human HLA-A2.1 on T2 cells (human)
T1 construct: whole, on cells; Empty or peptide-receptive HLA-A2.1 on TAP-deficient T2 cells; also called HLA-A*0201; class I MHC molecules
Assay: T2 binding assay (HLA-A2 on T2 cells, flow cytometry)

B1: Glypican-3 136-145 (SLTPQAFEFV) (peptide)
peptide: SLTPQAFEFV
notes: Synthetic 10 mer of human glypican-3 (NP-004475); also called GPC3 136-145; GPC3136-145
- binding result: binds
